# Article PMC3986616, “Identification and functional characterization of a flax UDP-glycosyltransferase glucosylating secoisolariciresinol (SECO) into secoisolariciresinol monoglucoside (SMG) and diglucoside (SDG)” (BMC Plant Biology, 2014)
# B1: UGT74S1 (Linum usitatissimum) (protein)
# chain: MAGDEREKAHCLVVPAAAQGHFTPLLQFSKRLIPKRIRVTLALTRFIHSTMTVTAQSGIHIDTISDGFDHSGLILQDPEHYSQTFRRVGSETLTDLIRKQSESRHPVHCIIYDASMPWFLDVAKRFGIVGAAFLTQSCAVNAIYYHLREGTIKRPVVSDPAAGTLVIDGLPPLEVSDLPSFIWDDLHTEFLAAHLRQFSNDGADWVFCNTVYQLELEAVDWLTKQWLINFRTIGPTIPSFYLDKQIPDDKDYDISIFNPQNQTCMNWLQSKPDGSVVYVSFGSLARLSPQQTEELYFGLKNSNHYFLWVVRESEVAKLPKEEYLSGEKGLVVSWCSQLQVLASGKVGCFVTHCGWNSTLEALSLGVPMVAMPECGDQLTNAKFIKDVWKTGVRAEADDGKGIMWGMIKREVIERCIREVMEGEETRRNADKWGKIIKEAVVEGGSSDKNTEDFATSLINFAETFQFSC
# Key:
# [1] = substrate: COc1cc(C[C@@H](CO)[C@H](CO)Cc2ccc(O)c(OC)c2)ccc1O; test: UPLC-MS glucosylation assay, SDG formation, Lineweaver-Burk; format: biochemical, Linum usitatissimum; settings: SDG production (sequential glucosylation via SMG), 1.67 mM UDP-glucose fixed, pH 8.0, 30°C, 1 mM NaCl, 80 μg protein
# [2] = substrate: O=c1ccn([C@@H]2O[C@H](CO[P@@](=O)(O)O[P@@](=O)(O)O[C@H]3O[C@H](CO)[C@@H](O)[C@H](O)[C@H]3O)[C@@H](O)[C@H]2O)c(=O)[nH]1; test: as above; format: biochemical, Linum usitatissimum; settings: SDG production, 280 μM SECO fixed, pH 8.0, 30°C, 1 mM NaCl, 80 μg protein
protein,measurement,setting,value
B1,Km,[1],79 µM
same,kcat,[1],0.89 s⁻¹
same,Km,[2],1188 µM
